A word on the stoichiometry N: it is a count of units in the complex or per binding partner.

For data set [1], the target named is CfaR^full-HIS6 (Streptomyces scabies). Nature of the data set: cross-linking; glutaraldehyde (1 μL of 2.3% w/v) added to 80 pmol purified protein in 20 mM sodium phosphate pH 7.5, 20 μL, 5 min at 37°C; stopped with Tris-HCl pH 8.0; SDS-PAGE (12%), Coomassie staining.
Data set [2] addresses CfaR^ΔLuxR-HIS6 (Streptomyces scabies). Described as above.
Data set [3] deals with T1, CfaRfull-HIS6 (Streptomyces scabies 87-22) (UniProt C9ZEC8).
T1 sequence: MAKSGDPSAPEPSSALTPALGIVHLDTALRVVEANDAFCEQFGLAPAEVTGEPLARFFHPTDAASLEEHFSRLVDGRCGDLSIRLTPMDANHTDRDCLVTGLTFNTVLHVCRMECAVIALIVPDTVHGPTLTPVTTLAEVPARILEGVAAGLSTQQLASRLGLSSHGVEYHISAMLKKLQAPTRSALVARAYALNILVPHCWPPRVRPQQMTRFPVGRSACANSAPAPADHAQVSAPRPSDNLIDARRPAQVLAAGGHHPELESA
The data set can be described thus: EMSA. The conditions noted are these: LightShift Chemiluminescent EMSA kit per manufacturer; buffer, salt, pH and temperature not stated (protein stored in 20 mM sodium phosphate, 150 mM NaCl, 20% …).

In the next data set the target is CfaRfull-HIS6 (Streptomyces scabies 87-22, UniProt C9ZEC8 1-265). The data set can be described thus: EMSA; 0.1 pmol probe, 2 pmol protein; LightShift Chemiluminescent EMSA kit per manufacturer; buffer, salt, pH and temperature not stated (protein stored in 20 mM sodium phosphate, 150 mM NaCl, 20% glycerol, pH 7.8). The note with it: protein: recombinant; tags: C-terminal His6; chain copies: 2; blunt.

Turning to CfaR^full-HIS6 (natural protein), in data set [1], the stoichiometry N was 2.
CfaR^ΔLuxR-HIS6 (domain or fragment) returned a stoichiometry N in data set [2] of 2.
For “GACCTTCGTTCTGTAGCCCTTGTATGGTCGCATTGCCTCCGCAGGTCGACCCCTTTCGGCACCATAGGAGACCCTCTTGGCGAACATCGAATCGACCATCAAGCACATCCTGGTCGACGATCTCTTCATCACTGTGCCG (double strand) [fragment b]”, the binding entry in data set [3] was “no binding”.
Regarding “GCACAGGAAGGAGGAGAACCCCTCACCTCGGGCCCTTGGACCCGACACACCCGCAGCGCGTGCGACGGTTCCTGCGCCGGCCGGCCTGACAAACCAGGGCGAGACGCCGCATCTGCGGAACCGGTCGACCCGCAGACGAATCGTGGCCGACGCCAACCCGAATGCGGG (double strand) [fragment c]”, the binding entry in data set [3] is “no binding”.

B1: P1 probe (LC12/LC13) (dsDNA)
DNA 1: CGAATGCGGGGACTAGGGATTCTCCTAGTCGACCTTCGTT
DNA 2: AACGAAGGTCGACTAGGAGAATCCCTAGTCCCCGCATTCG
Consider B1, for which the binding result with CfaRfull-HIS6 is “binds”.

B2: P2 control probe (LC14/LC15) (dsDNA)
DNA 1: TGTGGTTCGCGTCCATGGGTGTCAGGCGGATGCTTAAGTC
DNA 2: GACTTAAGCATCCGCCTGACACCCATGGACGCGAACCACA
Regarding B2, the binding result in the data set with CfaRfull-HIS6 was “no binding”.

The values are drawn from article PMC4380410.
